The supplement of paper PMC9732359
± gives the uncertainty stated by the source.

Assay: protein stability index of a GFP-peptide fusion (yeast GPS) (PSI 1-4); higher = more stable; sorted into four equal gates, so the index is relative within each strain
Details: pdr5∆
Summary of the method: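 Plasmids isolated from each sorting gate were PCR-amplified and Illumina-sequenced, and barcodes assigned the reads to strains. The gates, four of equal size, were set by GFP/Cherry fluorescence ratio on mid-log cultures in leucine-free medium. These cultures were yeast carrying a pooled library of tiled 17-residue yeast protein peptides fused downstream of GFP on a plasmid that also expresses Cherry. The protein stability index is the sum of every gate's read frequency times its gate number.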

| Sequence | protein stability index |
| --- | --- |
| YEDEELSRAEYDSDSDS [LIN1] | 3.33 ± 0.087 |
| YEKNFEATLESKLKEEE [ESC2] | 3.13 ± 0.17 |
| YENIPIYATFLNESDCL [YDL116W/NUP84] | 2.54 ± 0.15 |
| YFLVLSPYGNLQNDLIH [RPN5] | 2.42 ± 0.1 |
| YFSVTTARRNVSGDAAA [SWI3] | 2.23 ± 0.063 |

Same assay, conditions: san1∆

| Sequence | protein stability index |
| --- | --- |
| VMFATNRPNTLDPALLR [RPT1] | 2.9 ± 0.062 |
| VMLRLLLVVIFKKTLRS [SRB4] | 1.25 ± 0.098 |
| VNCFHEDTELYQELIKN [YJL039C/NUP192] | 2.83 ± 0.081 |
| VNEDPIFHPMIHYSWSF [YML103C/NUP188] | 2.42 ± 0.045 |
| VNEIMYKCTAAMEKYLL [MTW1] | 2.4 ± 0.07 |
| VNIHHLLNEYRPHQSRE [MED7] | 1.81 ± 0.2 |
| VNIPSFMVRLDSEKHID [RPS9A] | 2.48 ± 0.059 |
| VNISAVDNTTEQSNSRK [YCG1] | 3.1 ± 0.25 |
| VNKYGLRADKLYEKLKQ [ISW2] | 1.6 ± 0.13 |
| VNNPQEETSHLLTVTPG [RPN10] | 2.99 ± 0.14 |
| VNVEKFNVEYFAKEKLT [RPL6A] | 2.08 ± 0.069 |
| VPATAAPGTEAGIVPVS [SWI1] | 3.14 ± 0.066 |
| VPHYNRLDSYKVIEQPI [RPL25] | 2.02 ± 0.11 |
| VPMKEENLEESFLSKHA [SSN2] | 2.98 ± 0.2 |
| VPNSIGNIFSNIGTPSF [SNF5] | 1.33 ± 0.15 |
| VPPMKLAYSKIVNGQTF [YMR129W/POM152] | 1.09 ± 0.12 |
| VPPPPVRPSISFNESQR [RPO21] | 2.62 ± 0.039 |
| VPQTEEARAEAINLMGV [RPO31] | 3 ± 0.085 |
| VPRAALEERFDPKSPTK [YMR129W/POM152] | 3.01 ± 0.043 |
| VPSTTNVNMTVNTMGTG [MED6] | 2.91 ± 0.17 |
| VPVANQFINLAGYKKLG [QCR7] | 1.94 ± 0.17 |
| VQESGNIDYQKGLLIWR [GRR1] | 3.37 ± 0.1 |
| VQGLLQNAAANAEAKGL [RPL17A] | 2.06 ± 0.1 |
| VQVRSVMDPITSKRKAE [DIS3] | 2.92 ± 0.079 |

| Sequence | protein stability index |
| --- | --- |
| VRELFEMARTKKACIIF [RPT1] | 1.08 ± 0.21 |
| VRELGILCIFEGEKCHP [SEC65] | 2.67 ± 0.051 |
| VRILRLITTNSVEEVIL [SNF2] | 2.31 ± 0.081 |
| VRLRSNVIKTGIRIISL [RPN3] | 2.22 ± 0.23 |
| VRTHMRNMIIVPEMIGS [RPS15] | 1.39 ± 0.12 |
| VRTNTLTKAAIVQIDAT [RPS8A] | 2.37 ± 0.026 |
| VSEITKLKFFPSGEALI [RPN14] | 2.95 ± 0.064 |
| VSFYFEDGTIESYNQND [SIN4] | 2.41 ± 0.076 |
| VSKEGLYQLVDIRDSSC [YMR129W/POM152] | 2.7 ± 0.06 |
| VSKKWAAAAVCEKWAAS [RPL14A] | 2.6 ± 0.094 |
| VSLGTSIMAVTFKDGVI [PRE3] | 3.27 ± 0.075 |
| VSMYQNSSTSSTSNTPS [YDL088C/ASM4] | 2.58 ± 0.074 |
| VSNNEANTPSIPTNPVD [SWI3] | 2.97 ± 0.082 |
| VSPAFRVQVGDIVTVGQ [RPS11A] | 2.55 ± 0.14 |
| VSQQPLSRGYTCPGLSL [ECM29] | 3.02 ± 0.051 |
| VSSSLYERRFGPYFVGP [PUP3] | 2.62 ± 0.13 |
| VSTAKFSGKYLKYLTKK [RPL22A] | 3.41 ± 0.2 |
| VTDKYTAKKTNRSAYDS [YDL088C/ASM4] | 2.96 ± 0.14 |
| VTDNKTPEMNVTNNVEE [TAF14] | 3.35 ± 0.13 |
| VTDSSLLKLLTRLVQLR [GRR1] | 2.41 ± 0.074 |
| VTEMSNNANVLGGEIND [BRR2] | 3.51 ± 0.085 |
| VTFIFGELKRGNESVKP [MED11] | 2.97 ± 0.1 |
| VTKDLKLRREDEIIVYA [REC8] | 3.18 ± 0.056 |
| VTKGGTVENPLRNWEEL [PRP28] | 3.33 ± 0.055 |

| Sequence | protein stability index |
| --- | --- |
| VTMGAKDKLREFIPHST [RPN6] | 2.96 ± 0.099 |
| VTPNDKIPEREEKSNEV [SIR4] | 3.42 ± 0.21 |
| VTRIINSSEIQSAIRPA [RPL4A] | 2.37 ± 0.07 |
| VTSKVRNAEFKVSKNST [YMR153W/NUP53] | 2.98 ± 0.11 |
| VTVDADIDDILKKGEQK [ISW2] | 2.35 ± 0.084 |
| VTVEQLRSIYHQFHDIL [NSL1] | 1.31 ± 0.16 |
| VTWRTFTGDFLRRVEER [FAS1] | 1.96 ± 0.12 |
| VVERHLEDGDVVLFNRQ [RPO31] | 3.57 ± 0.069 |
| VVFTRLVQRCWQWGNDR [CSN12] | 1.58 ± 0.14 |
| VVGQLFQIDNDNIRYAT [SMC2] | 2.65 ± 0.065 |
| VVSTDLESIQKTKEAVA [RPL4A] | 2.9 ± 0.08 |
| VVTMSVKSVNDPSQNRL [RPC37] | 2.42 ± 0.17 |
| VYAQQSTVQTPITASMA [PGD1] | 1.51 ± 0.09 |
| VYDIMALEDEERDEILT [BRR2] | 3.08 ± 0.078 |
| VYSFDPVGSYEREQCRA [PRE7] | 3.27 ± 0.13 |
| VYVTGGRNLGRIGTIVH [RPS4A] | 3.18 ± 0.084 |
| WAEHLSDEVKRRFYKNW [RPL3] | 3.34 ± 0.14 |
| WCAGAGTAADTEAVTQL [PUP1] | 2.78 ± 0.21 |
| WCQEAFPSSETTSLNPI [BRR2] | 3.48 ± 0.11 |
| WEISNPDFLSKYSAITS [NUT1] | 1.51 ± 0.073 |
| WFCPCHGSHYDISGRIR [RIP1] | 2.64 ± 0.25 |
| WFLDHNYIENMNEMCKK [RPN8] | 2.93 ± 0.077 |
| WGEQKKAMSSRAGVSQV [RPB2] | 3.25 ± 0.071 |
| WGIPLIKELRSKGYPIQ [FAS1] | 1.69 ± 0.2 |

| Sequence | protein stability index |
| --- | --- |
| WGMEPLEDYVPHQSPDA [RPB2] | 2.98 ± 0.081 |
| WGYQMVWAPTQKCFKLT [POP1] | 2.57 ± 0.069 |
| WHIEETGEWFSSYEEFL [ITC1] | 2.59 ± 0.066 |
| WKFKSLIEILRLRALQL [RRI2] | 1.14 ± 0.13 |
| WKIPQNDIPQTESPLKT [SSN2] | 2.13 ± 0.08 |
| WLAAATATGIKVFSLDP [ASC1] | 2.81 ± 0.036 |
| WLLHNGFSTGIGDTIAD [RPO21] | 3.26 ± 0.093 |
| WLYVYETPNQDATYDSA [RPN6] | 2.67 ± 0.068 |
| WNLNATKPNVLNDPSLK [SIN4] | 3 ± 0.054 |
| WNSLMYALQSVKLPRAF [RRP43] | 1.2 ± 0.12 |
| WNWAKQSLLSLYFEIIH [FAS2] | 1.76 ± 0.15 |
| WRSKRIEQLFPVRPVRV [RPC53] | 3.21 ± 0.071 |
| WSFEEVEVKDASLVDYV [RPS5] | 1.22 ± 0.14 |
| WVNMLLISSSGPIKTPV [FAS2] | 1.23 ± 0.082 |
| WVTEVLGNDIPHDLIIG [BRR2] | 2.29 ± 0.063 |
| YALQSVKLPRAFIDERA [RRP43] | 1.3 ± 0.24 |
| YASKAVPHYNRLDSYKV [RPL25] | 2.34 ± 0.12 |
| YDDEQNTSAQHVESDKI [IRR1] | 3.06 ± 0.065 |
| YDEVKKHWGGGILGNKA [RPL8A] | 3.44 ± 0.06 |
| YDLVDNKGAKAEDVALN [NAS6] | 2.87 ± 0.12 |
| YDSRGVGEMKLLKKKDD [YLR335W/NUP2] | 2.52 ± 0.1 |
| YDSRPLEEDSKKVNGTS [PRP8] | 3.21 ± 0.098 |
| YEAGASHGNPVVDFLKR [FAS1] | 3.35 ± 0.07 |
| YEDEELSRAEYDSDSDS [LIN1] | 3.08 ± 0.057 |
